This note sets out measurements from patent publication US5652133A, “Cloning and expression of the human macrophage inflammatory protein-1.alpha . α) /rantes receptor” (The United States of America as represented by the …, priority 1993, dated 1997).

The target of test [1] is T1, MIP-1α/RANTES receptor (Homo sapiens, UniProt P32246).
T1 construct: I.D. No. 1; expressed in transfected cells; host or cells: Xenopus laevis oocytes microinjected with receptor cRNA
T1 sequence (P32246 1-355): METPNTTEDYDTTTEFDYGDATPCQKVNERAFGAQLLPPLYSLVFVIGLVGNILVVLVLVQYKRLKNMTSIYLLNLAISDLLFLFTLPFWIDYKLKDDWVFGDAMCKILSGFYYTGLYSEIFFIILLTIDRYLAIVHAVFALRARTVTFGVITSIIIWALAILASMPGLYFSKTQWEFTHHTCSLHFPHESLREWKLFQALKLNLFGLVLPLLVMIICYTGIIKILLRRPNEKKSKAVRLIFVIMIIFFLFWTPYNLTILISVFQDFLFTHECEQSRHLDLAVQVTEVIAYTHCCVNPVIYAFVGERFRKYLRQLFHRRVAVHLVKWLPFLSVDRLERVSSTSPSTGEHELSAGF
As to the kind of experiment: Calcium efflux assay in Xenopus oocytes injected with MIP-1α/RANTES receptor cRNA. It counts as cell-based. The settings on record: for responsiveness of cRNA-injected oocytes to ligand (calcium efflux): oocytes injected with 10 ng receptor cRNA, IL-8, GRO-α, NAP-2 at 500 nM, MIP-1α/MIP-1β Sf9 supernatant 1:5, panel C ligands at 250 nM. How it is done: (§1) The materials and methods used for the calcium efflux assay were as described in Murphy, et al., J. Immunol. 145:2227-2234 (1990). Adult female laboratory bred Xenopus laevis (Nasco, Fort Atkinson, Wis.) were maintained at 19° C. to 22° C. in a light-dark cycle of 12 h per phase. The frogs were anesthetized and ovarian lobes were resected and defolliculated in OR2 solution (82.5 mM NaCl, 1 mM MgCl2, 2.4 mM KCl, 5 mM HEPES, pH 7.5) containing 2 mg/ml collagenase for 2 h on a rotary shaker. Stage V-VI oocytes were transferred to ND96 solution (96 mM NaCl, 2 mM KCl, 1.8 mM CaCl2, 1 mM MgCl2, 2.4 mM sodium pyruvate, penicillin 100 U/ml, streptomycin 100 μg/ml, 5 mM HEPES, pH 7.4 to 7.5).
(§2) After 1-2 days, oocytes were microinjected with RNA samples in a total volume of 50 nl per oocyte and were then incubated in ND96 solution at 20° C. to 23° C. for 3 to 5 days. Oocytes were then incubated in 500 μl of OR2 medium containing ^45 Ca^2+ [50 μCi/ml (ICN Biomedicals, Costa Mesa, Calif.)] for 3 hours at 20° C. After ten washes with ND96 medium, individual oocytes were stimulated with ligand in wells of a 96-well tissue culture plate containing 100 μl of ND96 medium. Three 100 μl samples of the incubation medium were collected and analyzed by liquid scintillation counting: a) the final 100 μl wash (20 min) before application of ligand; b) fluid containing the stimulus, removed after a 20 min incubation with the oocyte; and c) the oocyte solubilized in SDS (1%) in medium 20 min after stimulation. Data are presented as the mean±standard error of the mean (SEM) of the percent of loaded ^45 Ca^2+ that was released by individual oocytes in response to the stimulus, or [(b-a).div.(b+c)]×100.
Ligands were all human recombinant material obtained from the following sources: MIP-1α (R and D Systems, Minneapolis, Minn.); IL-8, RANTES, and MCAF (Genzyme, Cambridge, Mass.); NAP-2 (Bachem Bioscience, Philadelphia, Pa.); GRO-α (a gift from M. P. Beckmann, S. Lyman and D. Cerretti). MIP-1α and MIP-1β used in a ligand screen was a gift of U. Siebenlist (NIAID, Bethesda, Md.) and were used as a diluted supernatant of Sf9 insect cells expressing immunoreactive recombinant human MIP-1α (from clone pAT464) or MIP-1β (from clone pAT744) that was prepared as described in Zipfel et al. J. Immunol. 142:1582-1590 (1989) and Zipfel et al. Lymph. Cyto. Res. 11:141-148 (1992). All proteins were diluted from aqueous stock solutions or culture supernatants into ND96 oocyte media (96 mM NaCl, […], pH 7.45) containing 0.1% bovine serum albumin.
Five days after injection with 10 ng of either MIP-1α/RANTES receptor cRNA (closed bars) or IL-8 receptor B cRNA (open bars), oocytes were stimulated with recombinant human IL-8, GRO-α or NAP-2 at 500 nM, or a 1:5 dilution of an Sf9 supernatant containing recombinant human MIP-1α or MIP-1β. […] Oocytes injected with 50 ng HL-60 RNA (closed circle) or 10 ng of MIP-1α/RANTES receptor cRNA (open circle) were stimulated with the indicated concentration of recombinant human MIP-1α. […] Oocytes were injected with either HL-60 RNA (open bars) or MIP-1α/RANTES receptor cRNA (closed bars) and stimulated with the indicated ligand at 250 nM. In panels A-C, the data derive from 5-8 replicate determinations per point.

For test [2], the target named is T1, MIP-1α/RANTES receptor. As to the kind of experiment: Radioligand binding of 125I-MIP-1α to oocytes injected with MIP-1α/RANTES receptor cRNA. How it is done: Carrier free recombinant human MIP-1α 10 μg (Genzyme, Cambridge, Mass.) was labeled using 5 mCi Na^125 I (Amersham, Arlington Heights, Ill.) in 100 μl 0.2M sodium phosphate, pH 7.2 and 50 μl reconstituted Enzymobeads (BioRad, Richmond, AC). The reaction was started using 25 μl 1% β-D-glucose and allowed to continue for 20 minutes. Labeled sample was separated from the free iodine using a NAP-5 column (Pharmacia LKB, Piscataway, N.J.) which had been previously rinsed with 1% bovine serum albumin in 0.2M sodium phosphate, pH 7.2. Labeled material was collected from the column and analyzed on a 14% acrylamide gel. Single oocytes were incubated with ^125 I-MIP-1α for 30 min on ice in 10 μl of binding buffer (Hanks' balanced salt solution with 25 mM HEPES, 1% bovine serum albumin, pH 7.4). Unbound ligand was removed by centrifugation of the oocyte through 300 μl of F50 silicone fluid (General Electric, Waterford, N.Y.). The tubes were quickly frozen and gamma emissions from the amputated tips were counted.
Binding of ^125 I-labeled MIP-1α to oocytes injected with MIP-1α/RANTES receptor cRNA. (A) Total (closed circles) and non-specific binding (open circles) was determined by incubating oocytes injected with MIP-1α/RANTES receptor cRNA with the indicated concentration of ^125 I-labeled MIP-1α in the absence or presence of a 100 fold molar excess of unlabeled MIP-1α, respectively. […]

In test [3] the test system is IL-8 receptor B. In words: Radioligand binding of 125I-MIP-1α to oocytes expressing IL-8 receptor B. As to conditions: single oocytes, 30 min on ice. The arrangement: species or system human.
Test [4] deals with IL-8 receptor B. In words: Calcium efflux assay in Xenopus oocytes injected with IL-8 receptor B cRNA. It counts as cell-based, human. The settings on record: oocytes injected with 10 ng IL-8 receptor B cRNA; 1:5 dilution of Sf9 supernatant. How it is done:
as §1
as §2, with “After ten washes with ND96 medium, individual oocytes were stimulated with ligand in wells of a 96-well tissue culture plate containing 100 μl of ND96 medium.” left out, “Data are presented as the mean±standard error of the mean (SEM) of the percent of loaded ^45 Ca^2+ that was released by individual oocytes in response to the stimulus, or [(b-a).div.(b+c)]×100.” left out

Regarding `O=c1ccn([C@@H]2O[C@H](COP(=O)(O)OP(=O)(O)OP(=O)(O)O)[C@@H](O)[C@H]2O)c(=O)[nH]1` [UTP, reference compound], the “responsiveness of cRNA-injected oocytes to ligand (calcium efflux)” value (from here on “responsiveness … (calcium efflux)”) at MIP-1α/RANTES receptor [1] is “inactive”.

As to `CCCCC[C@H](O)/C=C/[C@H]1[C@H](O)CC(=O)[C@@H]1C/C=C\CCCC(=O)O` [Prostaglandin E2, reference compound], the “responsiveness … (calcium efflux)” value on MIP-1α/RANTES receptor [1] was “inactive”.

Consider “MCP-1: human recombinant Monocyte Chemoattractant Protein-1 (MCAF, Genzyme)”, for which the “responsiveness … (calcium efflux)” value with MIP-1α/RANTES receptor [1] is listed as “not”.

`CCCCCCCCCCCCCCCCOCC(COP(=O)([O-])OCC[N+](C)(C)C)OC(C)=O` (stereo not shown) [platelet activating factor, reference compound]: the “responsiveness … (calcium efflux)” value at MIP-1α/RANTES receptor [1] was “inactive”.

With “^125 I-MIP-1α: carrier free recombinant human MIP-1α (Genzyme) labeled with Na125I”, the “threshold for detection of specific binding” value in the test with MIP-1α/RANTES receptor [2] is on record as “the same as that required for stimulation of calcium efflux”. The “specific binding to oocytes expressing IL-8 receptor B” value in the test on IL-8 receptor B [3] is recorded as “did not bind specifically”; with IL-8 receptor B [3] (listed as 125 I-labeled MIP-1α) it was “undetectable”.

For orientation: EC50 means the concentration at which the effect is half-maximal. As for “RANTES: recombinant human β chemokine, Regulated on Activation, Normal T Expressed and Secreted (Genzyme)”, the EC50 with MIP-1α/RANTES receptor [1] (calcium efflux, oocytes injected with receptor cRNA) was ~50 nM. In addition, the “responsiveness … (calcium efflux)” value with MIP-1α/RANTES receptor [1] was “acquired responsiveness”.

Turning to “MIP-1α: recombinant human Macrophage Inflammatory Protein-1α, β chemokine (R and D Systems; or Sf9 supernatant)”, in the test with MIP-1α/RANTES receptor [1] (calcium efflux, first phase), the “concentration at which the first phase of the oocyte response appeared to saturate” value is given as ~100 NM. In addition, the “concentration at which the second phase of the oocyte response did not reach a plateau” value in the test with MIP-1α/RANTES receptor [1] (calcium efflux, second phase) is > 5 µM. Moreover, the “responsiveness … (calcium efflux)” value with MIP-1α/RANTES receptor [1] was “acquired responsiveness”. Also, in the test with IL-8 receptor B [4], the “activation of IL-8 receptor B (calcium efflux)” value is given as “Neither MIPα nor MIP-1β activated”.

With `CSCC[C@H](NC=O)C(=O)N[C@@H](CC(C)C)C(=O)N[C@@H](Cc1ccccc1)C(=O)O` [f-met-leu-phe, reference compound], the “responsiveness … (calcium efflux)” value at MIP-1α/RANTES receptor [1] was “inactive”.

As for `Nc1ncnc2c1ncn2[C@@H]1O[C@H](COP(=O)(O)OP(=O)(O)OP(=O)(O)O)[C@@H](O)[C@H]1O` [ATP, reference compound], the “responsiveness … (calcium efflux)” value on MIP-1α/RANTES receptor [1] was “inactive”.

For the molecule “IL-8: recombinant human interleukin-8, α chemokine (Genzyme)”, in the test with MIP-1α/RANTES receptor [1], the “responsiveness … (calcium efflux)” value is listed as “not”.

In the case of `NCCc1c[nH]cn1` [histamine, reference compound], the “responsiveness … (calcium efflux)” value at MIP-1α/RANTES receptor [1] was “inactive”.

For “GROα: recombinant human GROα/melanoma growth stimulatory activity, α chemokine”, the “responsiveness … (calcium efflux)” value with MIP-1α/RANTES receptor [1] was “not”.

B1: MIP-1β: recombinant human MIP-1β, diluted supernatant of Sf9 insect cells (clone pAT744) (protein, UniProt P13236 24-92, looked up)
C-C motif chemokine 4: APMGSDPPTACCFSYTARKLPRNFVVDYYETSSLCSQPAVVFQTKRSKQVCADPSESWVQEYVYDLELN
In the case of B1, the “responsiveness … (calcium efflux)” value in the test with MIP-1α/RANTES receptor [1] is given as “not”. For the same molecule, in the test on IL-8 receptor B [4], the “activation of IL-8 receptor B (calcium efflux)” value was “Neither MIPα nor MIP-1β activated”.

B2: NAP-2: recombinant human neutrophil activating peptide-2 (Bachem Bioscience) (protein, UniProt P02775 59-128, looked up)
Neutrophil-activating peptide …: AELRCMCIKTTSGIHPKNIQSLEVIGKGTHCNQVEVIATLKDGRKICLDPDAPRIKKIVQKKLAGDESAD
modifications: Neutrophil-activating peptide 2
For the molecule B2, in the test with MIP-1α/RANTES receptor [1], the “responsiveness … (calcium efflux)” value was “not”.

B3: C5a: C5a, ligand tested in the oocyte calcium efflux screen (protein, UniProt P01031 678-751, looked up)
C5a anaphylatoxin: TLQKKIEEIAAKYKHSVVKKCCYDGACVNNDETCEQRAARISLGPRCIKAFTECCVVASQLRANISHKDMQLGR
modifications: C5a anaphylatoxin
notes: C5a, ligand tested in the oocyte calcium efflux screen
Turning to B3, the “responsiveness … (calcium efflux)” value with MIP-1α/RANTES receptor [1] was “inactive”.
